By Kd is commonly meant the constant that tells how readily two partners part at equilibrium. The low end stands for a tighter complex, the high end for a looser complex. As usually defined, the koff is a measure of how fast the partners let go of each other. By kon is commonly meant the rate constant with which the complex forms.

Kd, koff and kon data for five molecules are collected here from US20190083587A1 (Novo Nordisk, published 2019).

The labels stand for the following.
B1: hTLT-1 ECD-His (receptor)
chain: QGIVGSLPEVLQAPVGSSILVQCHYRLQDVKAQKVWCRFLPEGCQPLVSSAVDRRAPAGRRTFLTDLGGGLLQVEMVTLQEEDAGEYGCMVDGARGPQILHRVSLNILPPEEEEETHKIGSLAENAFSDPAGSANPLEPSQDEKSIPHHHHHH
notes: Extracellular domain of human TLT-1 with C-terminal His-6 tag; the range 16-168 is computed from these; also called TLT-1-His; His tagged human TLT1
B2: Fab0084 (Fab)
heavy: EVKLLESGGGLVQPGGSLKLSCAASGFDFSRYWMTWVRQAPGKGLEWIGEINPDSSTINYNPSLKDKFIISRDNAKNTLYLQMSEVRSEDTALYYCASGVFTSWGQGTLVTVSAASTKGPSVFPLAPCSRSTSESTAALGCLVKDYFPEPVTVSWNSGALTSGVHTFPAVLQSSGLYSLSSVVTVPSSSLGTKTYTCNVDHKPSNTKVDKRVESKYGPPC
light: DVVMTQTPLSLPVSLGDQASISCRSSQSLVHRNGNTYFHWALQKPGQSPKLLIYKVSNRFSGVPDRFSGSGSGTDFTLKISRVEAEDLGVYFCSQSTHVPYTFGGGTKLEIKRTVAAPSVFIFPPSDEQLKSGTASVVCLLNNFYPREAKVQWKVDNALQSGNSQESVTEQDSKDSTYSLSSTLTLSKADYEKHKVYACEVTHQGLSSPVTKSFNRGECEDQVDPRLIDGK
notes: VH-CH1 (human IgG4) with partial hinge YGPPC (one free Cys); light chain with HPC4 tag; the ends of the ranges are computed; also called antiTLT-1 0084Fab-YGPPC; (0012VH.T60N-CH1-YGPPC)
B3: Fab0003 (Fab)
heavy: QVQLQQSGAEPMKPGASVKISCKATGYTFSSHWIEWIKQRPGHGLEWIGEILPGSGNTNYNEKFKGKATFTADTSSNTAYMQLSSLTSEDSAVYYCARGYYGLNYDWYFDVWGAGTTVTVSSASTKGPSVFPLAPCSRSTSESTAALGCLVKDYFPEPVTVSWNSGALTSGVHTFPAVLQSSGLYSLSSVVTVPSSSLGTKTYTCNVDHKPSNTKVDKRVESKYGPPC
light: DIQMTQTTSSLSASLGDRVTISCRASQDISNYLNWYQQKPDGTVKLLIFYTSRLHSGVPSRFSGSGSGTDYSLTISNLEPEDIATYYCQQDTKLPYTFGGGTKLEMKRTVAAPSVFIFPPSDEQLKSGTASVVCLLNNFYPREAKVQWKVDNALQSGNSQESVTEQDSKDSTYSLSSTLTLSKADYEKHKVYACEVTHQGLSSPVTKSFNRGECEDQVDPRLIDGK
notes: VH-CH1 (human IgG4) with partial hinge YGPPC; light chain with HPC4 tag; Entries may include signal peptides; also called antiTLT-1 0003Fab-YGPPC; (0052LC-HPC4)
B4: Fab0004 (Fab)
heavy: EVRLVESGGGLVQPGGSLKLSCATSGFTFSDYFMYWIRQTPEKRLEWVAYISNGGDSSSYPDTVKGRFTISRDNAKNTLYLQMSRLKSEDTAMYYCATNKNWDDYYDMDYWGQGTSVTVSSASTKGPSVFPLAPCSRSTSESTAALGCLVKDYFPEPVTVSWNSGALTSGVHTFPAVLQSSGLYSLSSVVTVPSSSLGTKTYTCNVDHKPSNTKVDKRVESKYGPPC
light: DIVVSQSPSSLAVSAGEKVTMSCKSSQSLLNSRTRKNYLAWYQQKPGQSPKLLIYWASTRESGVPDRFTGSGSGTDFTLTISSVQAEDLAVYYCKQSYNLLTFGAGTKLELKRTVAAPSVFIFPPSDEQLKSGTASVVCLLNNFYPREAKVQWKVDNALQSGNSQESVTEQDSKDSTYSLSSTLTLSKADYEKHKVYACEVTHQGLSSPVTKSFNRGECEDQVDPRLIDGK
notes: VH-CH1 (human IgG4) with partial hinge YGPPC; light chain with HPC4 tag; Entries may include signal peptides; also called antiTLT-1 0004Fab-YGPPC; (0023LC-HPC4)
B5: Fab0074 (Fab)
heavy: QVQLEQSGAELVRPGVSVKISCKGSGYTFTDYSMHWVKQSHAKSLEWIGVISTYYGDVRYNQKFKGKATMTVDKSSSTAYMALARLTSEDSAIYYCARAPMITTGAWFAYWGQGTLVTVSAASTKGPSVFPLAPCSRSTSESTAALGCLVKDYFPEPVTVSWNSGALTSGVHTFPAVLQSSGLYSLSSVVTVPSSSLGTKTYTCNVDHKPSNTKVDKRVESKYGPPC
light: SIVMTQTPKFLLVSAGDRVTITCKASQSVSNDVAWYQQKPGQSPKLLINYASSRYTGIPDRFTGSGYGTDFTFTISTVQAEDLAVYFCQQDYSSPYTFGGGTKLEIERTVAAPSVFIFPPSDEQLKSGTASVVCLLNNFYPREAKVQWKVDNALQSGNSQESVTEQDSKDSTYSLSSTLTLSKADYEKHKVYACEVTHQGLSSPVTKSFNRGECEDQVDPRLIDGK
notes: VH-CH1 (human IgG4) with partial hinge YGPPC (one free Cys); light chain with HPC4 tag; Entries may include signal peptides; also called antiTLT-1 0074Fab-YGPPC; (0051LC-HPC4)

The target of one assay is T1, FVIIa-Fab1029 (human, UniProt P08709 61-466, linker attached as sialic acid derivative to an N-linked glycan (ST3Gal-III); gamma-carboxylated Glu in the Gla domain; unpaired hinge Cys (YGPPC) coupled by maleimide to the 10 kDa PEG linker).
T1 construct: FVIIa is the two-chain form cleaved between Arg152 and Ile153; also called conjugate of anti TLT-1-FAB fragment (Fab0084) to FVIIa, 10 kDa PEG linker
T1 sequence (P08709 61-466 limits assumed): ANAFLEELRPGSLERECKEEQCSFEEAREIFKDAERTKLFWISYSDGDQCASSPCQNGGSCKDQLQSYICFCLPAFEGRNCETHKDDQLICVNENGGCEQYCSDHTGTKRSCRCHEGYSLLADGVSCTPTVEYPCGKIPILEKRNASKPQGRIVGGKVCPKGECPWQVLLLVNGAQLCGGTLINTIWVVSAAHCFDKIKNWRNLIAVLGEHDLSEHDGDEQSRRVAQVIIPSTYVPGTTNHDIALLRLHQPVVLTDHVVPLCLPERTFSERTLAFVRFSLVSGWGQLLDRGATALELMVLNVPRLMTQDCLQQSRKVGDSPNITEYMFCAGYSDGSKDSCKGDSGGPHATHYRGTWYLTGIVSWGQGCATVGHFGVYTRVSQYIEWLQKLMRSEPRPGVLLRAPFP
Nature of the assay: SPR Biacore T100, TLT-1 immobilised on CM5, analyte 20-0.3 nM. The procedure:
TLT-1 was immobilized directly to a CM5 chip to a level of approx 2000 RU (50 ug/ml diluted in Na-acetate, pH 4.0) using the standard procedure recommended by the supplier and reagents provided in Table 16. Two-fold dilutions of FVIIa-Fab1029 and FIX-Fab0135 from 20 nM to 0.3 nM were tested for binding to TLT-1. Running and dilution buffer: 10 mM HEPES, 150 mM, 0.005% p20, pH 7.4. Regeneration was obtained by 10 mM Glycine, pH 1.7. Determination of kinetic and binding constants (kₒₙ, koff, KD) was obtained assuming a 1:1 interaction of TLT-1 and FVIIa-Fab1029 or FIX-Fab0135 using the Biacore T100 evaluation software.
(SPR reads the build-up and loss of mass on a sensor chip optically.)

The target in another assay is T2, human fibrinogen (human, UniProt P02671 20-629; P02675 31-491; P02679 27-437, limits assumed).
T2 construct: the chain composition (two each of alpha, beta, gamma) is from general knowledge; also called HCI-0150R Haematologic technologies
T2 sequence (looked up) 1: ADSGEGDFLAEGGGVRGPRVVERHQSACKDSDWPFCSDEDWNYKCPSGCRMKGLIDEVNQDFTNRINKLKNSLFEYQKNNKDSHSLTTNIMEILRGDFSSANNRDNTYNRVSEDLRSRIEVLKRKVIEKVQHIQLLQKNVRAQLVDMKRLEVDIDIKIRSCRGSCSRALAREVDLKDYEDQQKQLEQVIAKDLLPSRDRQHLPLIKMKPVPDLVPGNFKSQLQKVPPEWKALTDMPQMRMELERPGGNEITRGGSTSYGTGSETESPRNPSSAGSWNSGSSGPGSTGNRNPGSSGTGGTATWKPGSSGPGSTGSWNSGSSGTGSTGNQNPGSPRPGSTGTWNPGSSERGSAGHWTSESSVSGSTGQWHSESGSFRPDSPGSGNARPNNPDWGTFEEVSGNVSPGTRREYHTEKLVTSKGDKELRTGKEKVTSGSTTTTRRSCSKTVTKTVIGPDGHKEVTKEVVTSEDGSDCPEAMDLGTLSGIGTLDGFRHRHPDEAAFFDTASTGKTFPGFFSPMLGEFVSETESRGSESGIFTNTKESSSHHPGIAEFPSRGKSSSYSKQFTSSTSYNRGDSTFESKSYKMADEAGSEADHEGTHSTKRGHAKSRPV
T2 sequence (looked up) 2: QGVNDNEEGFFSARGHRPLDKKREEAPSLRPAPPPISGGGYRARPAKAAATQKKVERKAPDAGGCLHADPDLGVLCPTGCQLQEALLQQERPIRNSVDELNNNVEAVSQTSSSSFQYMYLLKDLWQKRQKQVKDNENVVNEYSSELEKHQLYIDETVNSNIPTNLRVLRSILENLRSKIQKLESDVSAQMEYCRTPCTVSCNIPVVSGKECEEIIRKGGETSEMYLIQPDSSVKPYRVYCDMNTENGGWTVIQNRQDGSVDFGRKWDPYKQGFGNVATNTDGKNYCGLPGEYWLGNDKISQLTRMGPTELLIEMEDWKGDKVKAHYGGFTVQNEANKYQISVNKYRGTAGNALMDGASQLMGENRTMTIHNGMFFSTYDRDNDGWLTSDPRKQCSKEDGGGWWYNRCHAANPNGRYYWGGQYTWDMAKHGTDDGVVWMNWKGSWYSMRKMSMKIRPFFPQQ
T2 sequence (looked up) 3: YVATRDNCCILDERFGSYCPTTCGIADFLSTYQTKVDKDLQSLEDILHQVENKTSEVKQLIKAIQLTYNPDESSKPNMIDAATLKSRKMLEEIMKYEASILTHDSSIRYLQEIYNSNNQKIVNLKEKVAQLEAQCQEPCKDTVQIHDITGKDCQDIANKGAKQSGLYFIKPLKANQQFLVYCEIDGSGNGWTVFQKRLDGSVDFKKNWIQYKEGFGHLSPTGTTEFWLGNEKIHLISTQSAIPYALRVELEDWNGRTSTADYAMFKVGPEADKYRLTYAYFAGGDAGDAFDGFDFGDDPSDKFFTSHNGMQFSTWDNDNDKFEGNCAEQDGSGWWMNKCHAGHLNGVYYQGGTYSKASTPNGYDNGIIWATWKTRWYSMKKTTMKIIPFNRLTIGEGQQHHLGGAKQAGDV
In words: SPR Biacore T100, TLT-1 immobilised on CM5, fibrinogen 200-0.2 nM as analyte. How it is done: Human TLT-1 was immobilised to a level of approx 1000 RU on a CM5 chip (50 μg/ml diluted in Na-acetate, pH 4.0) using the standard procedure recommended by the supplier. Four-fold dilutions of human fibrinogen from 200 nM to 0.2 nM were tested for binding to the immobilized TLT-1. Running and dilution buffer: 10 mM HEPES, 150 mM, 0.005% p20, pH 7.4. Regeneration was obtained by 10 mM Glycine, pH 1.7.
Determination of kinetic and binding constants (kₒₙ, koff, KD) was obtained assuming a 1:1 interaction of TLT-1 and fibrinogen using the Biacore T100 evaluation software (Table 11).

A further assay has as its target T3, FVIIa-Fab1001 (human, UniProt P08709 61-466, linker attached as sialic acid derivative to an N-linked glycan (ST3Gal-III); gamma-carboxylated Glu in the Gla domain; unpaired hinge Cys (YGPPC) coupled by maleimide to the 3 kDa PEG linker).
T3 construct: FVIIa is the two-chain form; also called conjugate of anti TLT-1-FAB fragment (Fab0084) to FVIIa via a 3 kDa PEG linker
Nature of the assay: SPR Biacore T200, His-tagged TLT-1 captured via anti 6xHis mAb, analyte 29.29-0.45 nM, 25 C. How it is done: Method: An anti 6×his antibody was immobilised to a level of approx 9000 RU on a CM5 chip (0.5 mg/ml diluted in Na-acetate, pH 5.0) using the standard procedure recommended by the supplier. Human his-tagged TLT-1 in a concentration of 100 ng/ml was used as ligand. FVIIa-Fab1001 in two-fold dilutions from 29.29 nM to 0.45 nM was used as analytes. The running and dilution buffer was made from: 10 mM HEPES, 150 mM NaCl, 3 mM EDTA, 0.005% p20, pH 7.4. Regeneration was obtained by 3 M MgCl₂. The experiment was run at 25 degree Celsius. Determination of kinetic and binding constants (kₒₙ, koff, KD) was obtained assuming a 1:1 interaction of TLT1 and FVIIa-Fab1001 using the Biacore T200 evaluation software (Table 19).

The assay “hTLT-1 ECD-His” concerns the target B1. Nature of the assay: SPR Biacore, TLT-1-His captured via anti-His mAb, Fab as analyte. How it is done:
Method: The mAbs of interest were either immobilized directly to a CM5 chip or by capture via a human Fc capture mAb immobilized to a CM5 chip, while TLT-1-His was immobilized by capture via an anti-His mAb CM5 chip for analysis of Fabs.
TLT-1-His capture via anti-His mAb (R&D #MAB050): The anti-His mAb was immobilised to approx 9.000 RU. The TLT-1-His was added to a level of approx 30-40 RU (10 μg/ml diluted in 10 mM Hepes, 150 mM NaCl, 3 mM EDTA, 0.005% Tween-20) using the standard procedure recommended by the supplier. 8-fold dilutions of Fabs from 3 to 0.047 μg/ml were tested for binding to the TLT-1-His. Running and dilution buffer: 10 mM Hepes, 150 mM NaCl, 3 mM EDTA, 0.005% Tween-20. Regeneration was obtained by 3 M MgCl₂.

T3 sequence (P08709 61-466 limits assumed): as the sequence (P08709 61-466 limits assumed) above

On to B1, for which, in the assay with FVIIa-Fab1029, the dissociation constant (Kd) turned out to be 18.3 nM, the off-rate constant (koff) is 0.00726 s⁻¹ and the kon came to 397000 M⁻¹ s⁻¹. Besides, in the assay with human fibrinogen, binding was put at a Kd of 94 nM, the koff stood at 0.000392 s⁻¹ and the kon is 4170 M⁻¹ s⁻¹. For the same molecule, in the assay with FVIIa-Fab1001, binding was put at a Kd of 3.99 nM, the dissociation rate constant (koff) is 0.00319 s⁻¹ and the on-rate (kon) is 801000 M⁻¹ s⁻¹.
In the assay with hTLT-1 ECD-His, B2 returned a Kd of 0.99 nM, a koff of 0.00524 s⁻¹ and a kon of 5.31e+06 M⁻¹ s⁻¹.
Taken in the same sequence, the figures for B3 were 5.2 nM, 0.00279 s⁻¹ and 536000 M⁻¹ s⁻¹.
Taken in the same sequence, the figures for B4 were 1.7 nM, 0.00195 s⁻¹ and 1.15e+06 M⁻¹ s⁻¹.
In the assay with hTLT-1 ECD-His, B5 displayed a Kd of 2.38 nM, a koff of 0.00798 s⁻¹ and a kon of 3.35e+06 M⁻¹ s⁻¹.
